Patent publication US7303752B2, “Hookworm vaccine” (The George Washington University, priority 2001, dated 2007)
Several values for one entry are separate records, joined by “and”; a condition that tells them apart may be missing. Identical values can stand only once.

B1: Ac-TMP: A. caninum putative tissue inhibitor of metalloproteinase, SEQ ID NO: 12; E. coli fusion protein (protein, listed as Ancylostoma caninum)
chain: MRVAIVFIACFAVAHACKCEKKPRPPLEKLLCQSQFVTHAKVTKKRIDGYFIYYDLEHKEVYKPKDRSIPIELFSWREKENCGMPDLEEGKEYLIGGKVTDYGDGDLVISVSRCDLLRNWTDVSGEEKKLLGTFKCENQS
modifications: E. coli fusion partner
notes: E. coli fusion protein
B2: Ac-MEP-1: A. caninum metalloendopeptidase antigen, SEQ ID NO: 14 (protein, listed as Ancylostoma caninum)
chain: MAKLLEVTTGLVVLLGVLGVISVVFNVLTWLKLNENKDDSSPAPKIWNVGEQDNTPVLTNLLVLEKEELAAKLKKTPYEEVDEQTVRQSSVMKLRNIKNALFTIEPVASALPPLRVNDPKYCPSYGEPDKKYAYQEAASYLLSGLDQTVDPCEDLYAFTCNTYLRNHNATDIGVNRIGTYKDAQDDVNAEIVEALEEVNVSDTKWSETERLVKATLFTCVHHTRARKPIDNSKNVLIEMRDLFGGIPFLNHTLKKDIDFFDIMGKFEQNHAMGTLLGAMVSVDFKNVNKHSLFLSQPYLPMARDFYVFPQHTKMVENRVSLINSVLRSFAEAVLDDPSPYLDLMSRSARDVVKLEMQIAMASWPESELRNYAQQHNPRTLNQLKAAYPAIKWDSYFNALLSSVQGVDMNRQNIILTQPSYFGWLNALFNGGADDKTIANYLLVHLILEEADFLGGALKTMVQKSDYVPYALGRGKGVTRVGQQLTRSHDDTVEDANIQCLNSMMTYMPFGPGYVYVKSRKNRDDVVKDIEHQTELVFKNFVNMIGNLNWMTDASLELAMEKADTMVKNYGWPKDLFGNFRDSSKIDAYHKKDYGNIINLYKENITHNYYHIRRTMIKGYSNHESLRLLTEAPKRDHFLLSPALVNAWYIPERNSIAFPYAFWNPPYYNYEYPQACNYAGQGGTAGHELVHGFDDQGVQFAADGSLSDCTWIECGWLEEKSKKGFSDMAQCVVTQYSTQCCPQTGGVTHCANGATTQGENIADLGGQLAAYRAYREYITKERGEEEKRLPGLEQYTPNQIFWITYGYSWCMSQTDSSLIRQLLTDVHSPGSCRVNQVMQDIPEFALDFGCTMGQKMYPEPEQRCPVWVAE
B3: Ac-API: A. caninum aspartyl protease inhibitor antigen, SEQ ID NO: 38 (protein, listed as Ancylostoma caninum)
chain: MKLLALSALFALAFAAPRDKRLAVSTITVTGGLGLSTGCVVTGNVLYANGFRVREITPSEQQELVKYQNDVAEYKTALKQAIKEREEKIRARLAGKKVKAVESTNQEDLPKPPQKPSFCTPEDTTQFFFEGCMIQNNKIYVGNTFARDLTQPEISELKEFEKKFKVYQDYVQKQAEQQVNSLFGGSDFFSALFSGGETSKPSTTTVAPELPEDAPEQPPTPNFCTRII

What was measured:
Format in all cases: in vivo, dog
A. caninum [1] = assay: Canine vaccine trial with Ac-TMP, Ac-AP, Ac-APR-1, oral challenge with 400 A. caninum L3
Excerpt: Study dogs and animal husbandry: Following protocol approval by The George Washington University Institutional Animal Care and Use Committee (IACUC), purpose bred, parasite naïve, male beagles 8±1 week of age were purchased, identified by ear tattoo, and maintained in the AALAC (Association for Assessment and Accreditation of Laboratory Animal Care) accredited George Washington University Animal Research Facility. The dogs were housed in a room dedicated for the study, at a room temperature of 70±4° F., with 10-15 air changes per hour comprised of 100 percent fresh air, and 12 hr light cycles alternating with 12 hr dark cycles. The airflow and timer functions were monitored daily. The dogs were fed on a diet of Teklad Certified Dog Chow #8727, supplemented with a canned soft diet in the event of anorexia. The drinking water was piped from a filter plant and delivered via automatc water system; water analysis was performed by the U.S. Army Corps of Engineers. Water from the facilities automatic system is cultured for bacteria and fungi annually. The pens were flushed daily and sanitized every two weeks. Dogs within a given study group were permitted to live together and socialize prior to the hookworm larval challenge, but were caged individually post-infection. All dogs were quarantined for approximately one week before beginning the vaccine trial. Prior to vaccination a complete blood count (CBC), serum chemistries, and a pre-vaccination serum sample were obtained.
Vaccine study design and sample size: The vaccine trial was designed to test three different antigens, each formulated with alum, as well as an alum adjuvant control. A total of 24 dogs were randomly assigned into four groups comprised of 6 dogs each. The canine sample size was selected on the ability to detect a 40-50 percent reduction in the numbers of adult hookworms in the small intestines of the vaccinated group relative to control dogs, at a statistical power of 80 percent (alpha=0.05, two-tailed). The data were derived from the mean and standard deviation of adult hookworms previously recovered from age-matched dogs infected with 400 A. caninum L3 (Hotez et al, 2002).
Recombinant Antigens: Each group of 6 dogs was vaccinated with recombinant hookworm proteins expressed as fusion proteins either in Escherichia coli or in an insect cell line with baculovirus. Ac-AP (Cappello et al, 1995; 1996) and Ac-TMP, were expressed in E. coli as pET 28 (Novagen) fusion proteins containing a polyhistidine tag (Cappello et al, 1996). Ac-APR-1 (Harrop et al, 1996) was expressed in a baculovirus pBacPAK6 vector (Clontech), modified to contain a polyhistidine-encoding sequence and additional restriction enzyme sites (Brindley et al, 2001). Recombinant Ac-AP and Ac-TMP fusion proteins were then purified by nickel affinity chromatography, followed by a second step of purification. In the case of Ac-AP (Cappello et al, 1995; 1996), the recombinant protein was purified by mono-S (Amersham-Pharmacia) ion exchange chromatography, while Ac-TMP (Zhan et al, 2002) was purified by superdex 75 (Amersham-Pharmacia) gel filtration chromatography. Ac-APR-1 (Harrop et al, 1996) was purified by substrate affinity chromatography using pepstatin agarose (Brindley et al, 2001). The antigen stock protein concentration was determined by Pierce Micro BCA assay (Pierce Chemicals) or by the absorbance of the sample at […] using an extinction coefficient that was calculated from the deduced amino acid composition of the fusion protein. The amount of alum adsorbed protein in each dose of antigen was measured by the Pierce Micro BCA assay using a bovine serum albumin standard. The relative purity of each of the antigens relative to contaminating E. coli or insect cell proteins was determined by analysis on sodium dodecyl sulfate polyacrylamide gel electrophoresis (SDS-PAGE). […]

[2] = system: antibody to recombinant proteins; assay: Pre-challenge antibody titer ELISA, trial with Ac-ASP-2, Ac-API, Ac-MEP-1, Ac-APR-1 in AS03; details: for antibody response, in words: AS03
Protocol: (§1) The vaccine trial was designed to test Ac-API, Ac-ASP-2, Ac-MEP-1, Ac-APR-1 formulated with Adjuvant System 03 (AS03) obtained from GlaxoSmithKline (GSK). The rationale for selecting AS03 as an adjuvants is discussed elsewhere (Stoute et al, 1997). The ten purpose bred beagles were randomized into five arms: immunized with the adjuvant-formulated recombinant proteins or adjuvant only (control). To make six doses of antigen formulated with AS03, […] of recombinant protein (0.3 ml of antigen at a concentration of 2 mg.ml^−1) was mixed with 1.2 ml of 20 mM Tris-HCl, 0.5 M NaCl, pH 7.9 and 1.5 ml of AS03; the contents of the tube were vortex mixed for 30 seconds then shaken at low speed for 10 minutes. Dogs were immunized with 100 g of formulated antigen in a final volume of 0.5 ml. ASO3 only control was prepared as described above, with PBS included instead of antigen. Formulation of GSK adjuvants were conducted according to the protocol provided by GSK. All injections were performed intramuscularly (IM). Test and control articles were prepared on the day of injection. All animals received 4 immunizations approximately 3 weeks apart.
Beagles were immunized with formulated Ac-ASP-2 as previously described (Loukas et al, 2004). The vaccines were administered IM three times beginning at age 62+/−4 days. Boosts were administered to the dogs at intervals of 21 days. Blood was drawn at least once every 21 days and serum was separated from cells by centrifugation. Each animal's specific antibody response was evaluated by indirect ELISA using serum taken prior to the infective challenge (Loukas et al, 2004). Recombinant Ac-ASP-2 was coated onto microtiter plates at a concentration of 5 g.ml^−1. Dog sera were titrated between 1:100 and 1:2×10^6 to determine endpoint titers. Anti-canine IgG1, IgG2 and IgE antibodies conjugated to horse-radish peroxidase (Bethyl Laboratories) were used at a dilution of 1:1,000.

A. caninum [3] = assay: Canine vaccine trial with Ac-ASP-2, Ac-API, Ac-MEP-1, Ac-APR-1 in AS03, footpad challenge with 500 A. caninum L3; details: for worm burdens, Maximum / worm burdens, Minimum / worm burdens, Mean / worm burdens, Median: 5 dogs; for worm burdens, Mean: ASO3 control 203.8000; for worm burdens, Median: ASO3 control 215.0000; for worm burden, Colon, Male, Average / worm burden, Colon, Female, Average / worm burden, Intestine, Female, Average / worm burden, Intestine, Male, Average / worm burden, Total, Average: group average; for worm burden, Colon, Male, Average: AS03 control 5; for worm burden, Colon, Female, Average: AS03 control 9; for worm burden, Intestine, Female, Average: AS03 control 95; for worm burden, Intestine, Male, Average: AS03 control 96; for worm burden, Total, Average: AS03 control 204; for worm burden, Colon, Female / worm burden, Colon, Male / worm burden, Intestine, Female / worm burden, Intestine, Male / worm burden, Total: individual dogs
Protocol: as §1, with “The ten purpose bred beagles were randomized into five arms: immunized with the adjuvant-formulated recombinant proteins or adjuvant only (control).” left out
A. caninum larvae were cultured from eggs collected in the feces of infected dogs. All hookworms in the infective challenge were approximately equal age (17±7 days post hatching). The species identity of the infective larvae were validated using PCR. All dogs were infected by the footpad method with the same dose of 500 L3 of A. caninum (Zhan et al, 2001). Larval challenge occurred on one of three consecutive days (at age 120+/−9 days). Fourteen-sixteen days after the final immunization, dogs were anesthetized using a combination of ketamine and xylazine (20 mg.kg^−1 and 10 mg.kg^−1 respectively), and 500 A. caninum L3 in a final volume of […] were applied to the footpad.

Molecule | antibody response, in words [2] | Pre-challenge antibody titer, IgG1, GEOMEAN ([2]; geometric mean of group) | Pre-challenge antibody titer, IgG2, GEOMEAN ([2]; geometric mean of group) | Pre-challenge antibody titer, IgG1 ([2]; individual dogs) | Pre-challenge antibody titer, IgG2 ([2]; individual dogs) | worm burdens, Maximum (A. caninum [3]) | worm burdens, Minimum (A. caninum [3]) | worm burdens, Mean (A. caninum [3]) | worm burdens, Median (A. caninum [3]) | worm burden, Colon, Male, Average (A. caninum [3]) | worm burden, Colon, Female, Average (A. caninum [3]) | worm burden, Intestine, Female, Average (A. caninum [3]) | worm burden, Intestine, Male, Average (A. caninum [3]) | worm burden, Total, Average (A. caninum [3]) | worm burden, Colon, Female (A. caninum [3]) | worm burden, Colon, Male (A. caninum [3]) | worm burden, Intestine, Female (A. caninum [3]) | worm burden, Intestine, Male (A. caninum [3]) | worm burden, Total (A. caninum [3]) | further results
B1 | – | – | – | – | – | – | – | – | – | – | – | – | – | – | – | – | – | – | – | % Decrease of adult hookworms in the small intestines relative to alum-injected dogs (A. caninum [1]; group): 10.8%; % Increase of adult hookworms in the colons relative to alum-injected dogs (A. caninum [1]; group): 500%; adult A. caninum hookworms in the colons, Median (A. caninum [1]; group median, alum control 4): 32; adult hookworms in the small intestines, Median (A. caninum [1]; group median, alum control 180): 161; ratio of adult hookworms in the small intestine relative to the colon (A. caninum [1]; vaccinated group, alum-injected dogs 43.9): 6.6
B2 | weak | 100 | 1,204 | 100 | 1,500 (4×) and 500 | 293.00 | 109.00 | 183.4000 | 129.0000 | 3 | 6 | 91 | 87 | 183 | 0 and 2 and 7 and 9 and 12 | 0 and 1 and 2 and 5 and 8 | 64 and 58 and 153 and 130 and 50 | 65 and 47 and 131 and 124 and 49 | 129 and 108 and 293 and 268 and 119 | worm burden reductions in three out of the five vaccinated dogs (A. caninum [3]; versus control mean): exceeded 36%
B3 | robust | 3,612 | 32,511 | 4,500 (4×) and 1,500 | 40,500 (4×) and 13,500 | 237.00 | 146.00 | 187.800 | 167.0000 | 5 | 12 | 83 | 87 | 188 | 3 and 1 and 12 and 24 and 21 | 3 and 0 and 2 and 9 and 10 | 86 and 83 and 66 and 91 (2×) | 54 and 83 and 80 and 105 and 115 | 146 and 167 and 160 and 229 and 237 | Pre-challenge antibody titer, IgE, GEOMEAN ([2]; geometric mean of group): 100; Pre-challenge antibody titer, IgE ([2]; individual dogs): 100; fecal eggs (fecundity), in words (A. caninum [3]; relative to the control group): significant reduction in fecal eggs; worm burden, in words (A. caninum [3]; versus AS03 control): no remarkable reduction in worm burden
